Key:
[1] = biological target: T1, 개 Tie2 단백질 (개 (dog), UniProt A0A8I3S0B4 27-1128); test: flow cytometry; HEK293T cells transfected with dog Tie2
T1 construct: whole, on cells; also called 다른 종 유래의 Tie2 단백질

[2] = biological target: T2, 랫 Tie2 단백질 (랫 (rat), UniProt A0ABK0L6J5 19-1116); test: flow cytometry; HEK293T cells transfected with rat Tie2
T2 construct: whole, on cells; also called 다른 종 유래의 Tie2 단백질

[3] = biological target: T3, 마우스 Tie2 단백질 (마우스 (mouse), UniProt Q02858 23-1122); test: flow cytometry; HEK293T cells transfected with mouse Tie2
T3 construct: whole, on cells; also called 다른 종 유래의 Tie2 단백질
T3 sequence (Q02858 23-1122): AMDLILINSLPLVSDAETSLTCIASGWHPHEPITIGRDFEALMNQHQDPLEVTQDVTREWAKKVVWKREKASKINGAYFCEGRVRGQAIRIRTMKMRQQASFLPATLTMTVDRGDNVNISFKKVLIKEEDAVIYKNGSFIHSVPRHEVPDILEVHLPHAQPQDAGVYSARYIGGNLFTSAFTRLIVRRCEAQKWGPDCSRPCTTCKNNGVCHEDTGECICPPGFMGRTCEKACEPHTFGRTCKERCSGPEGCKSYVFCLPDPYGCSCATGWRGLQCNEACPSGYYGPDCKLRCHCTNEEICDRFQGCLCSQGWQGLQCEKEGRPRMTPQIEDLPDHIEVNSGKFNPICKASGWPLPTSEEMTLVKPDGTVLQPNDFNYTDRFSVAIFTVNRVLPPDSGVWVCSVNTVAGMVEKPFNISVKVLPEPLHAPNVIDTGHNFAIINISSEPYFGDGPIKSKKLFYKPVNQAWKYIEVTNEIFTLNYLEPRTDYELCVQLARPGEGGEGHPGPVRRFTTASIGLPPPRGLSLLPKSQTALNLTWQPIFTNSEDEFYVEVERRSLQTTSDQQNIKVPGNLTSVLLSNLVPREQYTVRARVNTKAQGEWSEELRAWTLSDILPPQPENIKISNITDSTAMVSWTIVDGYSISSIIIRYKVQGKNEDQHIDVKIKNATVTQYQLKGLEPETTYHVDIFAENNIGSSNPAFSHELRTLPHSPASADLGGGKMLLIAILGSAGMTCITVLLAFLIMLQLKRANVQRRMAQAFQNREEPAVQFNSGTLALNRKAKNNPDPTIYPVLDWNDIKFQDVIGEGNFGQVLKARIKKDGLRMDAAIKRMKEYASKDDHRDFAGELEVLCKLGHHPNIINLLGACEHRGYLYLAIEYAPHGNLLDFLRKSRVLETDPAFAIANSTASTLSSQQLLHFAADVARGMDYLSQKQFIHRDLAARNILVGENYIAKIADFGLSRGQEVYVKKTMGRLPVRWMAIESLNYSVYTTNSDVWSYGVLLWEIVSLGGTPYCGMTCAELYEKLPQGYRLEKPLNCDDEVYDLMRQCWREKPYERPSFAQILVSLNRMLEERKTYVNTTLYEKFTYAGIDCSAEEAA

B1: Ang1mab2-1 (antibody, human IgG1, kappa, V domains shown)
VH: QVQLVESGGGVVQPGRSLRLSCAASGFTFSSYAMHWVRQAPGKGLEWVAVISYDGSNKYYADSVKGRFTISRDNSKNTLYLQMNSLRAEDTAVYYCARQYSGVFEYWGQGTLITVSS
VL: DIQMTQSPDSLAVSLGERATINCKSSQSVLYRSNNRNYLAWYQQKLGQPPQLLIYWASTRESGVPDRFSGSGSGADFTLTISSLQAEDVAVYYCQQYFSIPYTFGQGTKLEIKR
notes: also called 제2 기본 항체
B1: no binding (tested: 5-g/ml (so in the source)) [1]; no binding (tested: 5-g/ml (so in the source)) [2]; no binding (tested: 5-g/ml (so in the source)) [3].

Reference: patent publication KR20220059888A (dated 2022)
